Series [1] concerns the target T1, engineered MS26+ endonuclease, intron-containing gene (ST-LS1 intron) (synthetic construct (Chlamydomonas reinhardtii I-CreI derived)?) (UniProt P05725).
T1 sequence: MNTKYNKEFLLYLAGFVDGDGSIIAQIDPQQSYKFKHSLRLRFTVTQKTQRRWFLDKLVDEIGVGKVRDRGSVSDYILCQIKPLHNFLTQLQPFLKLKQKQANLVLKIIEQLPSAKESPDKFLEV
Kind of series: cell_activity. The conditions noted are these: 3 of 257 T0 maize plants.

Series [2] has as its system engineered MS26++ endonuclease (I-CreI-based) (synthetic construct (Chlamydomonas reinhardtii I-CreI derived)?). Nature of the series: cell_activity. The conditions noted are these: 15 mutations among 344 T0 maize plants as printed; Agrobacterium.

This passage reports activity (% T0 plants mutated) results from US20140020131.

Consider “GATGGTGACGTACGTGCCCTAC (double strand) [TS-MS26 target site (maize MS26 exon 5)]”, for which the activity (% T0 plants mutated) in series [1] was 1.2; in series [2], 5.8.
